In a protein production outcome set (Wang et al. 2014):

Assay: label from the status in PepcDB records

Sequence | protein production
MTASVTASVTAPETAPVPIVLAGARGHGRWHLDNIRRLQDRGLVRLAGICELTPLAEEELDGLGVPEQSADFGSLLDATGAAIAVICTPIPTHTDLALTAAERGVHLLLEKPPAPSFAEFRRMADGVAAAGVVCQIGFQSLGSGAVPGIRKLIAEGALGTVAGIGAAGAWARDEAYYRRAPWAGKRRLNGVDVIDGVLTNPLAHAVATALALDGSTRAEDVTDIETELLRANDIESDDTSCVRVTTKSGGRITVAATLCAEEPDEPYVLVHGDRGRITFWYKQDRVLVQRSGHGPQEIEYDRTDLLENLVGHLTHGAELLVTPESTGAFMKVVEAIRQAPDPVALPGDAWELIPGENRRVVRGVDGLVAAAADTLALYSELGASWALPNEVSSR | failed
MTATLQVTIVVGYLLVALAIGLLAYRVTERAAEDFYLASRTFGTAVLLFTVFATLLSAFTFFGGPDNAYAFGPEWILVMGLMDGLIFAILWYLIGYKQWLLGQRHGYVTLGEMFGDRFGSTGVRALVAVVSLFWLFPYVMLQQIGAGGALAALTDGVVPFWAGASLITGFMILYVVLAGMRGIAWTDTLQGAFMLCMVWAALVWVLVAVDGGVSTINAGLTESSPEFFALGSDFYTPGTMLTFAISIAFGVAMFPQVNQRFFTAASETVLKRSFALWPLLVLLLFVPAFLLGTWAQGLGLQADVGAGESILPILLDTYTPAWFAALVIAGAIAAMMSSSDSMLLSGSSYFTRDVYRPLVDDGITERQEDRLGRIGVAVFAIAALAASVWAEAEAFGAVAVGSVLVEIGDLAFGGFAQLTVPVLVALYWRGTTKQGLVAGILLPQAVYLAFNFLPATEVGSAMLFSETYLGWGISIYCLLLGLVATVVVSAATTKADSERPALFFESLRRG | failed
MTDAEYGLPRRSLLAGAAGAGAAFALPAGAAQAAPAASPQAGAERRHPRNWPDPEPYGAADTRADLWPREDNSFVLPLELRPRDQERGTVWMRDTYVNCFVVDGRPLYVATGTTRVPGLEAAGPWNDGIFVWLAPSLDGPWRLADTTGIRPGAERGKVWSPEFAGENRPGRTVVAPWQEYWHDEQFGKRGQAWAPELHYFRDTWYLVACMGDHSRKVGSFMLVSEGGVEGPYRLVEGNLDKPFGDSFIGGPKFIEPGAYHHIDGGLFSEGDDAWLVLHNDLYAKFRDDMEDIVTTTDLPRFRQTPYSPEPYLEGAYVFKYRGKYHLVHAAWDRTSVNADGTVRQAYDVPAAGRVQYQYDAIVAVADRFEGPYSKRYTAGVGAGHNNFFVDHRGGLWATYFLNPAAGYWSGASRVAESAVPGVVRLEWTGPAGGRLYVKRGSGGPGSGH | failed
MTDAPATPYAARTPVHEQHLDGFGTVRVLPLDPAADAAVVHGWVGEERAAFWGMNDLTRDQVAAVYAHMDTLDTHHAFLVVKDGEPAALLQTYDPAADRVSECYAAEPGDIGVHLLLAPAGAEGTRPGWTAALSGALMAYVLLGLDRTRIVVDPDVANEKAIARFLKQGFTAGPAVVLPEVDLPDVYLPEKKAQLAFLRREVAFGA | failed
MTDEIISYQKAKLAKNLAISTASKWLFVHSSTGGSATNLSIAQYATLINGIQSAIKCQVILTAGKGERERAVELAEKLTDQNVVIYDKNDGLADFTRSLACADLFIAGSTGPLHIAGGLNIPTVGFYPSRLSATPRRWRPINQVDKHLAFCPPSGKQCEMDLTLISIEQALTSVIPFIKKMWQLSLEHHHHHH | not failed
MTDFPTSLTSPGNRCEGCQQSQPLGFDFSFAYQPIVDLRDHSVFAHEALVRGVNGEGAGTVLGQVNDSNRYRFDQRCRTQAITLAAQLGMQSHLSINFMPNAVYRPELCIRSTLEAARAQRFPLDRLIFETLESQHVDNYRHLTNILREYREFGFKTAIDDFGSGYSGLNLLADFQPDLIKLDMALVRDVDQDRVRQAIIRAIVTMCAELGVTVIAEGIESAGERDFLSDCGIYLMQGYWFAKPAFKALAEVPAAAWNS | failed
MTDKKDFAASEHNNNDNIHAEVVPRQGISIIWFVPFIALIFGLWLTAKVVSEQGTFITIEFDNGSGIIPNKTEIRYKGLVTGLVKKVVPSADLQRVIAEVEISKNFTDYLTENTRFWLVSADISLQGVSGLDTLISGSYITIMPDTNQEADSQDHFVALTEAPTLDMSTPGLHLTLHTDVLGSISENSPISFKQIPIGHVTGYHYKESSKKIGINIYIKPEFAHLVKENSLFYNTSGVQVTASLTGGVKVNTESLASIMAGGISVDNLSYQTELAPAKNGQTFPLHADFQSAEMGHEVELTLEWNSGIDHNAAILFQGLTIGVIESFSKIDPVSRKITATAKVNPRVVPYLTDQSQFYIVAPQISLAGLTNAKTLLTGNYLSIRPSLAGNPSNKFNVFSSKPPYKYTEPGLHLMLTSSDRSSLQIGSNVYYKQQVVGNIQAIETTAPERHLIHIHVQPKFSHYVNHSSRFYNNSGVKISANLLGVDIQAQSLQSILTGGIAFTSQNSTQESQKKLVKNGDSFSLYANNKLAEQNISFTLNYMASEHISSDTRLLYRGIEIGAIHQTKIQGNKQQLQLGLLPEYEHILKADTQFYIVKPNLSLSGASDTDALFGGTYITFNLGQGKAKNQFTLFSQPPVKLASSPGLQLSLSTDHANVATPGSAISYRGITIGQVDNVSLNKIDDEIKVNITIDEEHRGLLKSTSRFYNAGGMTISGGLSDFVVKTESIDAILRGGISFYNPEVLLPTSLITNTQVEELSNFTLFKHEEHAKDAGQTISIHFNDISGLKVNTKVIYQEQTLGTIERLIFTADKVGVTALVLLNDSGSQFARKGTKFWKIEPQIGLVGSKNVAALLDGAFIGLLPSHNVEAKLKNEFEALELAPTVEQLSYGLNIKLTTARLGSVRVGNPVLYRQIKVGKVIGIDLSATADQVNIFINIAKRYAPLVNGNSQFWNTSGINIEASIFSGINIDSESIETLIAGGIAFATPDIDENNDKEQNDETKSLPASFILHQDVDEDWLEWQPKIAINNQTTSAE | failed
MTDKTPWSLRSVGNPSPIEIAMMLLSLLSVIIVLVMTFGRLDKETYRLLFFIDTTICMIFMVNFFAGLFRARDKLFYLRHHWIDFIASIPAIEALRIARVFQILRVIRLIRMSRSFLIPLIKQRKQATLASLLVAMVTILTFASIIILIIESGTEGANIQTAEQAIWWALVTISTVGYGDFYPVSTAGHIVGGIVIVSGVSFFGVISGYMASVFVAPDESERQERQDAHKAEIKSELELALARMEENQRQMELNQAQMLTKIAELKQALEDKKG | failed
MTDNETPAEDQVGDRVAGLLLAAGGGRRLGGRPKALLEHRGHPLVEHAVEVLRTAGCARVHVVLGARAADVRARAALDGCTLVDNPDWEQGMGSSLRAGLGSLAATGARAALVCLVDQPGIGAAATARVRARFRDETSLASAAYAGVRGHPVLLGAAHWAGVAATASGDRGARAYLREHEAEIALVECGDVARPYDIDTEADLVHLELEHHHHHH | not failed
MTDNTRLRIAMQKSGRLSDDSRELLARCGIKINLHTQRLIAMAENMPIDILRVRDDDIPGLVMDGVVDLGIIGENVLEEELLNRRAQGEDPRYFTLRRLDFGGCRLSLATPVDEAWDGPLSLNGKRIATSYPHLLKRYLDQKGISFKSCLLNGSVEVAPRAGLADAICDLVSTGATLEANGLREVEVIYRSKACLIQRDGEMEESKQQLIDKLLTRIQGVIQARESKYIMMHAPTERLDEVIALLPGAERPTILPLAGDQQRVAMHMVSSETLFWETMEKLKALGASSILVLPIEKMME | not failed
MTDPVFFAPSRRYTAAEVANLTGSVLVDSGQSDVSIEALAPASEGGANALVFVDGRRNSALMPSLRAAAVLCPAEFANKAPSSVAVLIHPRPQQAFALVGRLLFPTAATPGPMTSETGVSAHAHIDPTAHVEAGAIIEAGVVIGPGVSIGSGTVIAPNAVIGQSCQIGRDGYVGPGASIQYALIGNRVIIHGGARIGQDGFGFVGGAKGPERVPQIGRVVIQDDVEIGSNSTVDRGAMSDTIIGQGTKIDNLVQIAHNVRIGRNCIVAGLSGISGSVVVGDNVTMGGGVGLADHLTIGSGAKLAARSGFMSNVPAGEIWGGYPAQPMAEAMREIAMLRTMARARKQGKDNG | failed
MTDRQLIVLAALNIMVAVGAGAFGAHGLRRVVDPTLLAIWHTGVLYHLIHALGLFVVALLGARFGSPLLSMAGLVMFIGILLFCGSLYVLVLTGTRWLGAVTPLGGVAFLAAWAMVAWAAWRAPA | failed
MTDRSEDADGEPAPEDAAGLDDDALDHEFSEGAGFDDPYAGFDLDPPELDVDPDTVDPVDSRVVADTLDERTLDNDAVDADELIDVGLSYMGINRNEQAVDTFERAAQYTDDDNREQEAWVNKGIAHGELEEWDAAVGAHREALFVADDGDFEAAAHTNLAYALWEFGEDEQAYEHAEEAVRVDKRLPQAWYNLGFIENERDRPEQALDALDNAIRLGFQQADVYEEKTRALEALGRDEEAAKVAEQADEIRSQQERELVDER | failed
MTDRYIAFANSPVGRRLVGAVGLPSPLRLERWQAGRVRPVDGPLVIGGSGALAEAVLPFAGKLTDAVFAAVDGQFELPRWTAEHSPRAKAVLFDASGLTRFEQLVALRDFFQPVLKGLDKCPKVVVLGRPPESLKDPVTASVQRSLEGFTRSLGKEIRRGGNVQLLYVGKGAEDQLEGALRFFLSPKSAYVSGQVIRLAANSAQVHDWSKPLAGQRALVTGAARGIGAAIAETLARDGAEVVLLDVPPAREALEGLAARLGGRAVALDICAADAGQQLVEALPEGVDIVVHNAGITRDKTLAKMSSDFWNSVINVNLNAPQVLTQALLDGGKLHDNGRVVLLASISGIAGNLGQSNYAVSKAGLIGLAQAWAPALGKRGITINAVAPGFIETQMTAAIPLTIREAGRRMNSMSQGGLPQDVAETVAWFAQPSSGAVSGQVLRVCGQSLLGA | failed
MTDVEKPVDNSGTLIDDILSPLKGVNEDLNVLVLGGDKVNNNTDTMMLVNFKPSTSKVSILSIPRDTKVKINGKKAKINSAYPTGGGELAVQTVSELFGIDVKYYVFVDTSSFRKIIDILGGVDYYVPVDMDYDDPLQGLSIHIKKGQHHFDGAMAEKFMRFRQYNNGRVNEYYDGSDLKRIDAQQNFIRELVRQKLNIFYLTKVDDIASTIFSNIDTNLNMSEVLKLTGSVSKVQADSINMLKVPGKSVLDGAWYYVIDSQETDKIINEYFRTRYKLEHHHHHH | not failed
MTEAMIRKKPGMASVKDMPLLQDGPPPGGFAPVRYARRISNTGPSAMAIFLTVSGAFAWGMYQVGQGNKIRRALKEEKYAARRAILPILQAEEDERFVSEWKKYLEYEADVMKDVPGWKVGENVYNSGRWMPPATGELRPDVW | failed
MTEFTTLLQQGNAWFFIPSAILLGALHGLEPGHSKTMMAAFIIAIKGTIKQAVMLGLAATISHTAVVWLIAFGGMVISKRFTAQSAEPWLQLISAVIIISTAFWMFWRTWRGERNWLENMHGHDYEHHHHDHEHHHDHGHHHHHEHGEYQDAHARAHANDIKRRFDGREVTNWQILLFGLTGGLIPCPAAITVLLICIQLKALTLGATLVVSFSIGLALTLVTVGVGAAISVQQVAKRWSGFNTLAKRAPYFSSLLIGLVGVYMGVHGFMGIMR | failed
